# Measured values as given in patent publication US20190381184A1.
# B1: CXCL12 trap (engineered VH-linker-VL fusion protein, expressed in and purified from 293T cells) (scFv, V domains shown, not shown: small tags and cut ends)
# VH: EVQLVESGGGLVQPGGSLRLSCAASGFSLTVYSVHWVRQAPGKGLEWVGALWGSGGTEYNSNLKSRFTISRDTSKNTVYLQMNSLRAEDTAVYYCARDQGLNYGSLFDYWGQGTLVTVSS
# VL: DIQMTQSPSSLSASVGDRVTITCRASESISYSLSWYQQKPGKAPKLLIYNAVKLESGVPSRFSGSGSGTDFTLTISSLQPEDFATYYCKQYWNTPFTFGQGTKVEIKR
# modifications: flexible linker; C-terminal E tag, His6 tag
# Tests used:
# CXCL12 [1] = assay: cell-based or functional assay
# CXCL12 [2] = assay: Bio-Layer Interferometry; CXCL12 immobilized on AR2G biosensor, different concentrations of CXCL12 trap
# CXCL12 [3] = assay: Bio-Layer Interferometry (BLI)
# CXCL12 [4] = assay: Bio-Layer Interferometry, CXCL12 immobilized on the AR2G biosensor, CXCL12 trap at 500, 250 and 125 nM
binder,measurement,setting,value
B1,invasion of CT-26 FL3 cells stimulated with CXCL12 (100.0 ng/ml),CXCL12 [1],12 µg/mL
same,migration of CT-26 FL3 cells stimulated with CXCL12 (100.0 ng/ml),CXCL12 [1],8 µg/mL
same,one-half maximal inhibition [ND50] against biological active CXCL12 (100 ng/ml) in vitro,CXCL12 [1],120 nM
same,one-half maximal inhibition [ND50] of CT-26 FL3 cell migration stimulated with CXCL12 (100 ng/ml),CXCL12 [1],120 nM
same,Kd,CXCL12 [2],4 nM
same,Kd,CXCL12 [3],4 nM
same,Kd,CXCL12 [4],4.1 nM
same,koff,CXCL12 [4],3.64e-05 s⁻¹
same,kon,CXCL12 [4],8850 M⁻¹ s⁻¹
